# In the supplement of paper PMC9112550, “Optimization of the antimicrobial peptide Bac7 by deep mutational scanning” (BMC Biology, 2022):
# Tested on: Escherichia coli TOP10
# Assay: shrunken log2 fold change of peptide-encoding DNA abundance (4.5 h post-induction vs induction); higher = less antimicrobial activity (less host growth inhibition)
# Details: time post-induction: 4.5 h; library: site-saturation at positions 5, 18, 19, 20
# 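Further: peptides expressed intracellularly from a pBAD plasmid library in pooled LB shake-flask culture, induced with 0.3% L-arabinose, DNA abundance read by NGS, three biological replicates, DESeq2 with apeglm shrinkage.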
row,Sequence,shrunken log2 fold change
1,RRIRLRPPRLPRPRPRPFLCPRP,-0.353
2,RRIRFRPPRLPRPRPRPAPWPRP,0.592
3,RRIRMRPPRLPRPRPRPNRAPRP,0.239
4,RRIRRRPPRLPRPRPRPMSDPRP,-0.00309
5,RRIRSRPPRLPRPRPRPFISPRP,-0.152
6,RRIRMRPPRLPRPRPRPSKIPRP,-0.0332
7,RRIRTRPPRLPRPRPRPADMPRP,-0.431
8,RRIRPRPPRLPRPRPRPMMDPRP,0.0321
9,RRIRVRPPRLPRPRPRPINIPRP,-0.347
10,RRIRTRPPRLPRPRPRPDNCPRP,0.00765
11,RRIRYRPPRLPRPRPRPTRMPRP,0.09
12,RRIRMRPPRLPRPRPRPTQRPRP,0.968
13,RRIRMRPPRLPRPRPRPSVYPRP,-0.335
14,RRIRPRPPRLPRPRPRPWDDPRP,-0.144
15,RRIRFRPPRLPRPRPRPSGPPRP,0.21
16,RRIRKRPPRLPRPRPRPWQHPRP,-0.0281
17,RRIRHRPPRLPRPRPRPRLMPRP,0.121
18,RRIRFRPPRLPRPRPRPLPAPRP,0.51
19,RRIRPRPPRLPRPRPRPNNKPRP,-0.542
20,RRIRQRPPRLPRPRPRPVENPRP,-0.0501
21,RRIRSRPPRLPRPRPRPWSWPRP,0.405
22,RRIRKRPPRLPRPRPRPFCDPRP,0.144
23,RRIRARPPRLPRPRPRPVCCPRP,0.573
24,RRIRWRPPRLPRPRPRPWRKPRP,-0.139
25,RRIRNRPPRLPRPRPRPQGPPRP,0.0355

row,Sequence,shrunken log2 fold change
1,RRIRQRPPRLPRPRPRPDLKPRP,-0.0178
2,RRIRNRPPRLPRPRPRPGDVPRP,-0.0732
3,RRIRGRPPRLPRPRPRPGGIPRP,0.402
4,RRIRCRPPRLPRPRPRPQTRPRP,0.471
5,RRIRLRPPRLPRPRPRPMHTPRP,0.25
6,RRIRTRPPRLPRPRPRPCPRPRP,-0.13
7,RRIRFRPPRLPRPRPRPTAKPRP,0.444
8,RRIRVRPPRLPRPRPRPFTHPRP,-0.222
9,RRIRTRPPRLPRPRPRPFSVPRP,0.0234
10,RRIRSRPPRLPRPRPRPVLFPRP,-0.0544
11,RRIRWRPPRLPRPRPRPAFGPRP,0.53
12,RRIRIRPPRLPRPRPRPYKDPRP,-0.317
13,RRIRLRPPRLPRPRPRPAHSPRP,0.0693
14,RRIRFRPPRLPRPRPRPGCGPRP,0.748
15,RRIRARPPRLPRPRPRPSILPRP,-0.156
16,RRIRKRPPRLPRPRPRPAYSPRP,-0.0338
17,RRIRTRPPRLPRPRPRPTNLPRP,-0.0724
18,RRIRHRPPRLPRPRPRPWDIPRP,0.0726
19,RRIRRRPPRLPRPRPRPFFVPRP,0.283
20,RRIRNRPPRLPRPRPRPLMGPRP,-0.254
21,RRIRFRPPRLPRPRPRPQCCPRP,-0.067
22,RRIRVRPPRLPRPRPRPYWDPRP,0.0849
23,RRIRLRPPRLPRPRPRPIPIPRP,-0.456
24,RRIRARPPRLPRPRPRPTHAPRP,0.528
25,RRIRSRPPRLPRPRPRPCEYPRP,0.0232

row,Sequence,shrunken log2 fold change
1,RRIRPRPPRLPRPRPRPMLPPRP,0.0406
2,RRIRWRPPRLPRPRPRPKVRPRP,-0.00879
3,RRIRRRPPRLPRPRPRPEKWPRP,-0.00174
4,RRIRIRPPRLPRPRPRPFCQPRP,-0.412
5,RRIRIRPPRLPRPRPRPVYWPRP,-0.208
6,RRIRARPPRLPRPRPRPMGYPRP,0.0315
7,RRIRGRPPRLPRPRPRPMKQPRP,0.316
8,RRIRFRPPRLPRPRPRPKIFPRP,-0.197
9,RRIRHRPPRLPRPRPRPPRVPRP,0.356
10,RRIRWRPPRLPRPRPRPDMVPRP,0.0298
11,RRIRHRPPRLPRPRPRPQSAPRP,-0.116
12,RRIRQRPPRLPRPRPRPLPKPRP,-0.226
13,RRIRGRPPRLPRPRPRPETWPRP,1.28
14,RRIRTRPPRLPRPRPRPGPHPRP,0.124
15,RRIRFRPPRLPRPRPRPSPDPRP,-0.0261
16,RRIRRRPPRLPRPRPRPFEKPRP,-0.0125
17,RRIRVRPPRLPRPRPRPNASPRP,0.147
18,RRIRTRPPRLPRPRPRPLFWPRP,0.134
19,RRIRKRPPRLPRPRPRPSTRPRP,-0.114
20,RRIRFRPPRLPRPRPRPGHSPRP,-0.0168
21,RRIRYRPPRLPRPRPRPPQVPRP,-0.0496
22,RRIRMRPPRLPRPRPRPVMPPRP,-0.0271
23,RRIRFRPPRLPRPRPRPLYSPRP,-0.211
24,RRIRNRPPRLPRPRPRPPQSPRP,0.331
25,RRIRNRPPRLPRPRPRPVVVPRP,-0.11

row,Sequence,shrunken log2 fold change
1,RRIRWRPPRLPRPRPRPAVYPRP,-0.682
2,RRIRCRPPRLPRPRPRPIVHPRP,-0.7
3,RRIRWRPPRLPRPRPRPHYPPRP,-0.225
4,RRIRYRPPRLPRPRPRPKNHPRP,-0.919
5,RRIRNRPPRLPRPRPRPFDPPRP,-0.805
6,RRIRWRPPRLPRPRPRPMKHPRP,-0.0254
7,RRIRHRPPRLPRPRPRPKRFPRP,0.0543
8,RRIRCRPPRLPRPRPRPVRIPRP,-0.108
9,RRIRERPPRLPRPRPRPAELPRP,-0.187
10,RRIRQRPPRLPRPRPRPMFYPRP,-0.503
11,RRIRDRPPRLPRPRPRPCFKPRP,-0.0968
12,RRIRQRPPRLPRPRPRPRQIPRP,0.0413
13,RRIRRRPPRLPRPRPRPRYVPRP,0.147
14,RRIRLRPPRLPRPRPRPWIHPRP,-0.487
15,RRIRMRPPRLPRPRPRPGISPRP,0.0451
16,RRIRPRPPRLPRPRPRPAYTPRP,-0.116
17,RRIRTRPPRLPRPRPRPRRNPRP,0.125
18,RRIRIRPPRLPRPRPRPNYRPRP,-0.00601
19,RRIRPRPPRLPRPRPRPYMLPRP,-0.781
20,RRIRRRPPRLPRPRPRPANAPRP,0.055
21,RRIRRRPPRLPRPRPRPAAMPRP,0.516
22,RRIRDRPPRLPRPRPRPPDMPRP,0.123
23,RRIRVRPPRLPRPRPRPLSCPRP,-0.307
24,RRIRKRPPRLPRPRPRPIGQPRP,0.0684
25,RRIRIRPPRLPRPRPRPQTTPRP,-0.38

row,Sequence,shrunken log2 fold change
1,RRIRSRPPRLPRPRPRPFRTPRP,-0.318
2,RRIRQRPPRLPRPRPRPIDKPRP,0.0866
3,RRIRFRPPRLPRPRPRPTDSPRP,-0.0233
4,RRIRWRPPRLPRPRPRPHTHPRP,-0.268
5,RRIRCRPPRLPRPRPRPNQPPRP,-0.0425
6,RRIRCRPPRLPRPRPRPVVQPRP,-0.235
7,RRIRRRPPRLPRPRPRPHQMPRP,0.19
8,RRIRQRPPRLPRPRPRPANTPRP,-0.118
9,RRIRPRPPRLPRPRPRPGPNPRP,0.51
10,RRIRTRPPRLPRPRPRPLADPRP,0.125
11,RRIRRRPPRLPRPRPRPKELPRP,0.166
12,RRIRYRPPRLPRPRPRPWDPPRP,-0.0966
13,RRIRNRPPRLPRPRPRPYKLPRP,-0.66
14,RRIRARPPRLPRPRPRPSCPPRP,0.131
15,RRIRHRPPRLPRPRPRPETEPRP,0.105
16,RRIRPRPPRLPRPRPRPVDGPRP,0.0909
17,RRIRHRPPRLPRPRPRPMPHPRP,-0.131
18,RRIRTRPPRLPRPRPRPSQSPRP,-0.114
19,RRIRDRPPRLPRPRPRPNITPRP,-0.289
20,RRIRKRPPRLPRPRPRPCQHPRP,-0.167
21,RRIRARPPRLPRPRPRPGTNPRP,0.204
22,RRIRARPPRLPRPRPRPMLLPRP,-0.0981
23,RRIRQRPPRLPRPRPRPSHNPRP,0.547
24,RRIRERPPRLPRPRPRPSVDPRP,-0.318
25,RRIRPRPPRLPRPRPRPRWHPRP,0.186
